Test results reported in patent US9120851B2, “Human antibodies to human angiopoietin-like protein 4” (Regeneron Pharmaceuticals, Inc., priority 2009, dated 2015).

Legend:
hANGPTL3-His = target: T1, hANGPTL3-His (Homo sapiens, UniProt Q9Y5C1); experiment: BIACORE cross-reactivity, amine coupled hANGPTL3-His; type: binding; conditions: for Specific RU, hANGPTL3-His: chip surface 5228 RU, mAb injected at 3.125-50 μg/mL
T1 construct: His; purchased R&D Systems 3829-AN
T1 sequence (Q9Y5C1 17-460): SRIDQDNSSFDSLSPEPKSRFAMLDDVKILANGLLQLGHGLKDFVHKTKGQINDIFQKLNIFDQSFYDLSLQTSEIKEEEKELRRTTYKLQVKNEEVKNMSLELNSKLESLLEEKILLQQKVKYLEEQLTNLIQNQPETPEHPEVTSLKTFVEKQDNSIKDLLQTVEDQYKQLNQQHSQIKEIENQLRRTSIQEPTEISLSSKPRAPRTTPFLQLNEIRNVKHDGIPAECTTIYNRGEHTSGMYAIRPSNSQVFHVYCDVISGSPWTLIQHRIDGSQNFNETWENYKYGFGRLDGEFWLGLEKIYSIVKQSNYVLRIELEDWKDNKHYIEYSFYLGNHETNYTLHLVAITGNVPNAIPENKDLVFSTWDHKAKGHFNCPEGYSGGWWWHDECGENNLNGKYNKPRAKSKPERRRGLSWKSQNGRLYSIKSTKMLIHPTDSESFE
Experimental: (§1) Possible cross-reactivity of the anti-hANGPTL4 antibodies to related proteins, i.e., hANGPTL3, human angiopoietin-like protein 5 (hANGPTL5) and mouse ANGPTL4 (mANGPTL4), was tested for the selected antibodies, i.e., H1H268P and H1H284P, using the BIACORE™ system. Briefly, anti-hANGPTL4 antibodies as well as negative controls, i.e., two monoclonal antibodies (Control a and Control b) that are non-binders to any ANGPTL proteins, were injected at 3.125 μg/mL-50 μg/mL over amine coupled chip surfaces of hANGPTL3-His (R&D Systems, cat #3829-AN) at 5228 RU, hANGPTL4-His (R&D Systems, cat #4487-AN) at 6247 RU, hANGPTL5-His (Abnova Corp., cat #H00253935-P01) at 5265 RU, and mANGPTL4-His [R26-S410 of mANGPTL4 (SEQ ID NO: 478) fused with an AS linker to a C-terminal 6-histidine tag] at 5233 RU, respectively. A polyclonal antibody specific for hANGPTL3 (R&D System, cat #BAF3485) was also tested.

hANGPTL4-His = target: T2, hANGPTL4-His (Homo sapiens, UniProt Q9BY76); experiment: BIACORE cross-reactivity, amine coupled hANGPTL4-His; type: binding; conditions: for Specific RU, hANGPTL4-His: chip surface 6247 RU, mAb injected at 3.125-50 μg/mL
T2 construct: purchased R&D Systems 4487-AN
T2 sequence (Q9BY76 26-406): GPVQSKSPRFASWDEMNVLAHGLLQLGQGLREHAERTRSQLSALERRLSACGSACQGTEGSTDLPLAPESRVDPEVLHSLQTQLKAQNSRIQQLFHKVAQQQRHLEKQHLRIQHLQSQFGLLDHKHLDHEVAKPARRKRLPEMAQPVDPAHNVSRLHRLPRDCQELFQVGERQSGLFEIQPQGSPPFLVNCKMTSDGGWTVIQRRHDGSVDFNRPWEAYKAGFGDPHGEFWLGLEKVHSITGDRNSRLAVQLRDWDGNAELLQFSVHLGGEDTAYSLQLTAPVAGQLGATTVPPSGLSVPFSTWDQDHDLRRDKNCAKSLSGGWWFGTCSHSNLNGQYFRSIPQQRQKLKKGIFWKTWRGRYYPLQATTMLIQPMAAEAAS
Experimental: as §1

mANGPTL4(26-410)-His = target: T3, mANGPTL4(26-410)-His (Mus musculus, UniProt Q9Z1P8); experiment: Cell-free LPL bioassay, inhibition of mANGPTL4-His; type: biochemical; conditions: constant 1 nM mANGPTL4(26-410)-His; antibody 0 to 100 nM; NB: Not blocking
T3 sequence (Q9Z1P8 26-410): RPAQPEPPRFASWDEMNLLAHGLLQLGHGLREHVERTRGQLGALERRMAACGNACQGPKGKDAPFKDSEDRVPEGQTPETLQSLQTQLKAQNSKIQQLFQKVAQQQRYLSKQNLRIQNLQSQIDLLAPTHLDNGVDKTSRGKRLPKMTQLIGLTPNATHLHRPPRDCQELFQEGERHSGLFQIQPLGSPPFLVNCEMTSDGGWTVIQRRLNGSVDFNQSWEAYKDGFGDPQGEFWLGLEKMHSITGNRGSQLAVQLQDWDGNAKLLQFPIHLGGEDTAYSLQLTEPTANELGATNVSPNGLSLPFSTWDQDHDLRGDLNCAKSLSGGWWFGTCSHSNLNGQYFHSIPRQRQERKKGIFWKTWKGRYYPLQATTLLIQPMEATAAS

[1] = Serum human Ab levels in humanized ANGPTL4 mice, ELISA; type: in vivo, mouse; design: unit not given here; conditions: mean±SEM
Experimental: The effect of anti-hANGPTL4 antibodies H1H268P and H1H284P on serum TG levels was determined in mice expressing the ANGPTL4 protein containing the human N-terminal coil-coil region (“humanized ANGPTL4 mice”). The humanized ANGPTL4 mouse was made by replacing first three exons of the mouse Angptl4 gene (the N terminal coil-coil region) with the corresponding human N-terminal coil-coil ANGPLT4 sequence in C57BL6/129 (F1H4) embryonic stem cells. After germ line transmission was established, heterozygous mice (ANGPTL4hum/+) were bred together to generate homozygous mice [ANGPTL4hum/hum or hANGPTL4(+/+)] on a C57BL6 background. Humanized ANGPTL4 mice were pre-bled 7 days before (day −7) the experiment and put into groups of six mice each for each antibody tested. Antibodies (H1H268P, H1H284P and isotype-matched (hIgG1) control with no known cross-reactivity to mouse antigens) were administered at 10 mg/kg dose by subcutaneous injection. Mice were bled after 4 hours of fasting at days 1, 4, 7 and 11 after antibody injection; and serum TG levels were determined by ADVIA® 1800 Chemistry System (Siemens). Average TG levels were calculated for each time point for each antibody.
Levels of circulating anti-hANGPTL4 antibodies (“serum human Ab”) were also determined using a standard ELISA assay. Briefly, plates were coated with a goat anti-human Fc antibody (Sigma-Aldrich) to capture serum human Ab. Serum was then added to the plates and captured anti-hANGPTL4 antibodies were detected by chemiluminescence using a horseradish peroxidase (HRP)-conjugated goat anti-human IgG antibody (Sigma-Aldrich).

hANGPTL4(26-148)-mFc = target: T4, hANGPTL4(26-148)-mFc (Homo sapiens, UniProt Q9BY76); experiment: BIACORE, full mAb or Fab over anti-mFc captured hANGPTL4(26-148)-mFc; type: binding
T4 construct: amino acid residues 26-148 of human ANGPTL4 fused in-line to mouse IgG2a (hANGPTL4-mFc)

[2] = day 1 after injection, 10 mg/kg s.c.
[3] = day 4 after injection, 10 mg/kg s.c.
[4] = day 7 after injection, 10 mg/kg s.c.
[5] = day 11 after injection, 10 mg/kg s.c.
[6] = pH 5.75, 25° C., antigen captured 27 ± 0.6 RU
[7] = pH 7.2, 25° C., antigen captured 35 ± 1.9 RU

T4 sequence (Q9BY76 with tags, fused parts or gaps): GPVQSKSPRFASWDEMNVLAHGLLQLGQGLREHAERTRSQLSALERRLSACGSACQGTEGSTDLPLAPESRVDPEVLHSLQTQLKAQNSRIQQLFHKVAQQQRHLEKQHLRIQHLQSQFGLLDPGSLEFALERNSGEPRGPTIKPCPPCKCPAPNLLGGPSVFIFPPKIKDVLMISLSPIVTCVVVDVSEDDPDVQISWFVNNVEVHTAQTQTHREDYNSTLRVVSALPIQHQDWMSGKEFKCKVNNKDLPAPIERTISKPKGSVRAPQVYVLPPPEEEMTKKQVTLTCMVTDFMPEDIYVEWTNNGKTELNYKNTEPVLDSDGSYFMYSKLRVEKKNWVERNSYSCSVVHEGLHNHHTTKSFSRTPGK

B1: H1H268P: anti-hANGPTL4 antibody, hIgG1 isotype, HCVR/LCVR SEQ ID NOs 42/44 (antibody, V domains shown)
VH: QVQLQESGAGLLKPSETLSLTCTVYGGSFSIHHWTWIRHPPGKGLEWIGEINHRGSTNYNPSLKSRVTISIDTSKNQFSLKLSAVTAADTAVYYCARGLRFLDWLSSYFDYWGQGTLVTVSS
VL: DIQMTQSPSSLSASVGDRVTITCRASQGISDYLAWYQQKPGKVPNLLIYAASALQSGVPSRFSGSGSGTDFTLTISSLQPEDVATYYCQNYNTAPLTFGGGTKVEIK
- binding to hANGPTL3-His (other related ANGPTL protein), in words (hANGPTL3-His): did not bind
- Specific RU, hANGPTL3-His (hANGPTL3-His): −17 RU
- binding to hANGPTL4-His, in words (hANGPTL4-His): bound specifically
- Specific RU, hANGPTL4-His (hANGPTL4-His): 768 RU
- IC50 (mANGPTL4(26-410)-His): > 100 nM
- Serum Human Antibody [1, 2]: 24130 ± 1788
- Serum Human Antibody [1, 3]: 16557 ± 1369
- Serum Human Antibody [1, 4]: 12586 ± 1176
- Serum Human Antibody [1, 5]: 6106 ± 1111
- Serum Human Antibody ([1]; day −7 (pre-bleed)): 2.92 ± 2.92
- Response bound at 50 nM mAb or Fab (RU) (hANGPTL4(26-148)-mFc; [6]): 77
- Response bound at 50 nM mAb or Fab (RU) (hANGPTL4(26-148)-mFc; [7]): 40

B2: H1H284P: anti-hANGPTL4 antibody, hIgG1 isotype, HCVR/LCVR SEQ ID NOs 90/92 (antibody, V domains shown)
VH: QVQLVESGGGVVQPGRSLRLSCAASGFTFSSYGMHWVRQAPGKGLEWMAVISFDGGNKNNADSVKGRFTISRDNSKNTLYLQMNSLRAEDTAVYYCAKEGDRSGHPYFYYYGLDVWGQGTTVTVS
VL: DIQLTQSPSFLSASVGDRVTITCWASQGISSYLAWYQQKPGKAPKLLIYAASTLQSGVPSRFSGSGSETEFTLTISSLQPEDFATYYCQQLHSYPLTFGGGTKVEIK
- binding to hANGPTL3-His (other related ANGPTL protein), in words (hANGPTL3-His): did not bind
- Specific RU, hANGPTL3-His (hANGPTL3-His): −6 RU
- binding to hANGPTL4-His, in words (hANGPTL4-His): bound specifically
- Specific RU, hANGPTL4-His (hANGPTL4-His): 1351 RU
- IC50 (mANGPTL4(26-410)-His): > 100 nM
- Serum Human Antibody [1, 2]: 16459 ± 1455
- Serum Human Antibody [1, 3]: 9103 ± 767
- Serum Human Antibody [1, 4]: 2428 ± 525
- Serum Human Antibody [1, 5]: 135 ± 38
- Serum Human Antibody ([1]; day −7 (pre-bleed)): 3.02 ± 2.38
- Response bound at 50 nM mAb or Fab (RU) (hANGPTL4(26-148)-mFc; [6]): 171
- Response bound at 50 nM mAb or Fab (RU) (hANGPTL4(26-148)-mFc; [7]): 99
